Consider 1 molecule from patent US20130323813, “PEPTIDES FOR THE SPECIFIC BINDING OF RNA TARGETS” (THE UNIVERSITY OF WESTERN AUSTRALIA, published 2013).

The target in series [1] is T1, PUM1 PUF CR (repeat 6 Cys12/Arg16) (Homo sapiens, UniProt Q14671 SEQ:1-351).
T1 chain: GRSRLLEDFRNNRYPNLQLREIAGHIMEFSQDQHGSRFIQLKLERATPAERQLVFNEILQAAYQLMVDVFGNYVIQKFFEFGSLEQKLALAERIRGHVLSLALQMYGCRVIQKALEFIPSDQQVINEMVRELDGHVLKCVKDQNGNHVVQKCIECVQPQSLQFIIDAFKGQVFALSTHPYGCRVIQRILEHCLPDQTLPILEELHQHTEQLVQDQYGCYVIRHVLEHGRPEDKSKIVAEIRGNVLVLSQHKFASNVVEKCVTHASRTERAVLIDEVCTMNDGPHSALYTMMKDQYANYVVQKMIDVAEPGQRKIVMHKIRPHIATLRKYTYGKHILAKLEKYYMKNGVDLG
Put plainly: EMSA; 10 mM HEPES pH 8.0, 50 mM KCl, 1 mM EDTA, RT. Conditions: tags: intein-CBD cleaved for EMSA; label: 5'-fluorescein. As to the method:
(§1) Purified PUF domains were incubated at room temperature for 30 min with fluorescein labeled RNA oligonucleotides (Dharmacon) in 10 mM HEPES (pH 8.0), 1 mM EDTA, 50 mM KCl, 2 mM DTT, 0.1 mg/ml fatty acid-free BSA, and 0.02% Tween-20.

Series [2] has as its target T2, PUM1 PUF GR (repeat 6 Gly12/Arg16) (Homo sapiens, UniProt Q14671 SEQ:1-351).
T2 chain: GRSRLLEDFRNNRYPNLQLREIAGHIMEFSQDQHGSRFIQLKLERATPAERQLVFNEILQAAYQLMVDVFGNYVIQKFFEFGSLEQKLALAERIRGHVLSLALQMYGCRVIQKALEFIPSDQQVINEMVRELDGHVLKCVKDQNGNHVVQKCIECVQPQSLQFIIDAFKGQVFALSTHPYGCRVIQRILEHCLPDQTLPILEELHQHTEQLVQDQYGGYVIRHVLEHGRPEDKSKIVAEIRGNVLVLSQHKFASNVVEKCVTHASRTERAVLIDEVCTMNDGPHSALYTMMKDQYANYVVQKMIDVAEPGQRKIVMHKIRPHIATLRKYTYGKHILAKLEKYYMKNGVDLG
The series is described as follows: EMSA; 10 mM HEPES pH 8.0, 50 mM KCl, 1 mM EDTA, RT. Conditions: tags: intein-CBD cleaved for EMSA; label: 5'-fluorescein. As to the method:
as §1

For AUUGCAUAUA (ssRNA) [NREU3C (Fl)], the binding result in series [1] and in series [2] was “binds” throughout.
